According to patent publication US20210024903A1 (Pfizer, published 2021):

B1: B9-30 (antibody, V domains shown)
VH: QVQLQQPGAEVVKPGAPVKLSCKASGYPFTNYWMNWVKQRPGRGLEWIGRIDPSNSEIYYNQKFKDKATLTVDKSSSTAYIQLSSLTSEDSAVYYCASGHYGSIFAYWGQGTTLTVSS
VL: VQITQSPSYLAASPGETITINCRASKSISKYLAWYQEKPGKTNKLLIYSGSTLQSGIPSRFSGSRSGTDFTLIISSLEPEDSAMYYCQQHNEYPLTFGAGTKLELKR
B2: B9-30 mAb (antibody, V domains shown)
VH: QVQLQQPGAEVVKPGAPVKLSCKASGYPFTNYWMNWVKQRPGRGLEWIGRIDPSNSEIYYNQKFKDKATLTVDKSSSTAYIQLSSLTSEDSAVYYCASGHYGSIFAYWGQGTTLTVSS
VL: VQITQSPSYLAASPGETITINCRASKSISKYLAWYQEKPGKTNKLLIYSGSTLQSGIPSRFSGSRSGTDFTLIISSLEPEDSAMYYCQQHNEYPLTFGAGTKLELKR

Assays:
[1] = biological target: Commercial, Control Toxin B wt (List Biologicals) (Clostridium difficile, UniProt P18177 2-2366); test: dot blot, non-denaturing
[2] = biological target: wild-type C. difficile toxin B (TcdB wt, from List Bio) (C. difficile strain 630, UniProt P18177 2-2366); test: dot blot, nondenaturing
wild-type C. difficile toxin B (TcdB wt, from List Bio), sequence (P18177 2-2366 limits assumed): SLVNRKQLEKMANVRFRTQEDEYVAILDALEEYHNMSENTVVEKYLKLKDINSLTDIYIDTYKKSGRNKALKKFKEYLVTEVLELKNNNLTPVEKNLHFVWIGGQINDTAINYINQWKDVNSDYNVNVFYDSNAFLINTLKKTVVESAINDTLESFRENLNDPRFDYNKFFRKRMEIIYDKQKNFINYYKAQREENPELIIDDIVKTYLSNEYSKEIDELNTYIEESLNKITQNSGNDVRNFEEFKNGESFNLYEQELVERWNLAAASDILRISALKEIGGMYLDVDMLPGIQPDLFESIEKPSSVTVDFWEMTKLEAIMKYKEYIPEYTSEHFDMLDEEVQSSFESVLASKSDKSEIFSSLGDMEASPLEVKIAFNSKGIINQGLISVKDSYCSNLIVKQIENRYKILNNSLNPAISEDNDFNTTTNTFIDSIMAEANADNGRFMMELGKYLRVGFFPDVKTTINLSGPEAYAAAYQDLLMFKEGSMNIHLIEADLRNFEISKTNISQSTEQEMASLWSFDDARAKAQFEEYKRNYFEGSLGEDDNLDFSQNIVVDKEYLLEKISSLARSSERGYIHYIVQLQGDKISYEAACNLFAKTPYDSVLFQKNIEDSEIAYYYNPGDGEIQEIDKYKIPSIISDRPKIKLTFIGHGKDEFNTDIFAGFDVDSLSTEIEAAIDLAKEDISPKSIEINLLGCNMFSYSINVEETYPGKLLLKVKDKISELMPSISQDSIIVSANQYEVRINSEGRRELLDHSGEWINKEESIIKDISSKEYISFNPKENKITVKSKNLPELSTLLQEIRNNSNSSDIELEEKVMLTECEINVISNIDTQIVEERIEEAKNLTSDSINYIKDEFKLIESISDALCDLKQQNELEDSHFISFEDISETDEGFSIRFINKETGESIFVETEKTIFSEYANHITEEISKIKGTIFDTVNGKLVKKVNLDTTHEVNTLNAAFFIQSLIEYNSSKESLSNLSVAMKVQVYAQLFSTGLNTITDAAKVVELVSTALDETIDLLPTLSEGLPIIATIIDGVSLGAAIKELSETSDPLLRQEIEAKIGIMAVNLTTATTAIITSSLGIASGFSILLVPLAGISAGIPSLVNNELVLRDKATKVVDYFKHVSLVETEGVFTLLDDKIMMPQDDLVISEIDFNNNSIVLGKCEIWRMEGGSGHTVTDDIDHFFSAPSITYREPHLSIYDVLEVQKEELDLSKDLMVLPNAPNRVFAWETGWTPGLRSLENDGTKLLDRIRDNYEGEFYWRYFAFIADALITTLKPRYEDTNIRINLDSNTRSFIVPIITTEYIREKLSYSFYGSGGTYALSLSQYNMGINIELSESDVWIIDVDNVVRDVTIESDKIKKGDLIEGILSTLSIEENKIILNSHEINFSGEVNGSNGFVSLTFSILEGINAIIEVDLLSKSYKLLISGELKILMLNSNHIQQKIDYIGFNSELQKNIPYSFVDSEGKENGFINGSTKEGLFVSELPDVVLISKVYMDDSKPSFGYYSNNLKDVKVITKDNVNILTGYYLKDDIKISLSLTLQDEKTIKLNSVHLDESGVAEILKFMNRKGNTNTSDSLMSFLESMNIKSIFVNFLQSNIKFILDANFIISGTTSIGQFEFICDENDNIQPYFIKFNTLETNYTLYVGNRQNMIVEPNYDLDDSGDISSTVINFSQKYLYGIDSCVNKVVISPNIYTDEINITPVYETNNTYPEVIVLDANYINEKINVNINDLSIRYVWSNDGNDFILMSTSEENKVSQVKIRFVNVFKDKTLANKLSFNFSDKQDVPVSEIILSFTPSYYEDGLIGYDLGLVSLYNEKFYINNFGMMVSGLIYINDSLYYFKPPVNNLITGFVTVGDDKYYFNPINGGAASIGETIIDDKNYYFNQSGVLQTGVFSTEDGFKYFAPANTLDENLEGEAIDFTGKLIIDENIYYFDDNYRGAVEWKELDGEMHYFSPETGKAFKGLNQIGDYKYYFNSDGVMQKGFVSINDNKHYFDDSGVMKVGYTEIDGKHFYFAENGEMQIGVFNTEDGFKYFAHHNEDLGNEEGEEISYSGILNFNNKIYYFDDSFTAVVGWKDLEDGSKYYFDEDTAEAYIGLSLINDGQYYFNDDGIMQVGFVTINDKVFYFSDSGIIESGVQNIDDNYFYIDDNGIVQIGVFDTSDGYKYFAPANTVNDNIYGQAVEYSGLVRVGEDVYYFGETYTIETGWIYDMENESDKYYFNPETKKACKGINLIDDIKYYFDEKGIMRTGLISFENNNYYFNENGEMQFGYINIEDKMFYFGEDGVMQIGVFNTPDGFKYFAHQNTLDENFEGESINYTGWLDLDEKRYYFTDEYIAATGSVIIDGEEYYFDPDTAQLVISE

Commercial, Control Toxin B wt (List Biologicals), sequence (P18177 2-2366 limits assumed): as above

Binder	binding result [1]	binding result [2]
B1	binds	
B2		binds
